Among the data in patent publication US20210145976A1 are HSA, hCD71 and hCD71:HSA values, retold here.

B1: SEQ ID NO 297 (designed binder)
chain: MLPAPKNLVVSRVTEDSARLSWTAPDAAFDSFLIPYAETSPSGEAITLFVPGSERSYDLTGLKPGTEYNVVIQGVKGGRPSNPLVAASTT
B2: SEQ ID NO 282 (designed binder)
chain: MLPAPKNLVVSRVTEDSARLSWTAPDAAFDSFAIVYHEPRPDGEAIVLTVPGSERSYDLTGLKPGTEYEVVILGVKGGVHSYPLSAIFTT
B3: SEQ ID NO 295 (designed binder)
chain: MLPAPKNLVVSRVTEDSARLSWTAPDAAFDSFFIGYLEPIPSGEAIVLTVPGSERSYDLTGLKPGTEYPVVIQGVKGGHPSQPLSAIFTT
B4: SEQ ID NO 283 (designed binder)
chain: MLPAPKNLVVSRVTEDSARLSWTAPDAAFDSFPIAYAEPRPDGEAIVLTVPGSERSYDLTGLKPGTEYSVLIHGVKGGLLSSPLSAIFTT
B5: SEQ ID NO 298 (designed binder)
chain: MLPAPKNLVVSRVTEDSARLSWTAPDAAFDSFPIAYAEPRPDGEAIVLTVPGSERSYDLTGLKPGTEYSVLIHGVKGGLLSSPLSAISTT
B6: SEQ ID NO 286 (designed binder)
chain: MLPAPKNLVVSRVTEDSARLSWTAPDAAFDSFNIYYPEFPVRGEAIVLTVPGSERSYDLTGLKPGTEYVVSIWGVKGGTQSWPLSAIFTT
B7: SEQ ID NO 302 (designed binder)
chain: MLPAPKNLVVSRVTEDSARLSWTAPDAAFDSFDIYYPEYYDRGEAIVLTVPGSERSYDLTGLKPGTEYTVYIDGVKGGGGSGPLSAIFTT
B8: SEQ ID NO 294 (designed binder)
chain: MLPAPKNLVVSRVTEDSARLSWTAPDAAFDSFSIIYSEWNVTGEAIVLTVPGSERSYDLTGLKPGTEYDVWIEGVKGGGMSKPLSAISTT
B9: SEQ ID NO 81 (designed binder)
chain: MLPAPKNLVVSRVTEDSARLSWTAPDAAFDSFVIEYREGAWYGEAIVLTVPGSERSYDLTGLKPGTEYAVYIPGVKGGPRSFPLSAIFTT
B10: SEQ ID NO 55 (designed binder)
chain: MLPAPKNLVVSRVTEDSARLSWTAPDAAFDSFIIEYWEFVGYGEAIVLTVPGSERSYDLTGLKPGTEYWVAIYGVKGGDLSKPLSAIFTT
B11: SEQ ID NO 306 (designed binder)
chain: MLPAPKNLVVSRVTEDSARLSWTAPDAAFDSFYIEYFETQGYGEAIVLTVPGSERSYDLTGLKPGTEYYVAIYGVKGGYLSRPLSAIFTT
B12: SEQ ID NO 56 (designed binder)
chain: MLPAPKNLVVSRVTEDSARLSWTAPDAAFDSFVIEYFEALEGGEAIVLTVPGSERSYDLTGLKPGTEYFVGIYGVKGGPLSKPLSAIFTT
B13: SEQ ID NO 299 (designed binder)
chain: MLPAPKNLVVSRVTEDSARLSWTAPDAAFDSFLIEYWESVGYGEAIVLTVPGSERSYDLTGLKPGTEYWVGIYGVKGGYYSRPLSAIFTT
B14: SEQ ID NO 60 (designed binder)
chain: MLPAPKNLVVSRVTEDSARLSWTAPDAAFDSFTIWYAEAIGHGEAIVLTVPGSERSYDLTGLKPGTEYWVDIWGVKGGQQSKPLSAIFTT
B15: SEQ ID NO 285 (designed binder)
chain: MLPAPKNLVVSRVTEDSARLSWTAPDAAFDSFLIPYAETSPSGEAIVLTVPGSERSYDLTGLKPGTEYSVLIHGVKGGDYSSPLSAIFTT
B16: SEQ ID NO 288 (designed binder)
chain: MLPAPKNLVVSRVTEDSARLSWTAPDAAFDSFLIPYAETSPSGEAIVLTVPGSERSYDLTGLKPGTEYSVLIHGVKGGDYSSPLSAISTT
B17: SEQ ID NO 281 (designed binder)
chain: MLPAPKNLVVSRVTEDSARLSWTAPDAAFDSFYIDYDEIHDWGEAIVLTVPGSERSYDLTGLKPGTEYAVQIGGVKGGSFSWTLSAIFTT
B18: SEQ ID NO 291 (designed binder)
chain: MLPAPKNLVVSRVTEDSARLSWTAPDAAFDSFHIEYEEPETEGEAIYLHVPGSERSYDLTGLKPGTEYKVLIRGVKGGSYSIPLQAPFTT
B19: SEQ ID NO 305 (designed binder)
chain: MLPAPKNLVVSRVTEDSARLSWTAPDAAFDSFEIDYDEPFVYGEAIVLTVPGSERSYDLTGLKPGTEYRVFIFGVKGGNGSWPLSAIFTT
B20: SEQ ID NO 289 (designed binder)
chain: MLPAPKNLVVSRVTEDSARLSWTAPDAAFDSFAIPYYEDTNDGEAIVLTVPGSERSYDLTGLKPGTEYWVSIQGVKGGTVSGPLSAIFTT
B21: SEQ ID NO 303 (designed binder)
chain: MLPAPKNLVVSRVTEDSARLSWTAPDAAFDSFFIAYFEFANPGEAIVLTVPGSERSYDLTGLKPGTEYKVVIQGVKGGTPSEPLSAIFTT
B22: SEQ ID NO 287 (designed binder)
chain: MLPAPKNLVVSRVTEDSARLSWTAPDAAFDSFTIEYHESGPVGEAIVLTVPGSERSYDLTGLKPGTEYMVWIFGVKGGFVSRPLSAIFTT
B23: SEQ ID NO 34 (designed binder)
chain: MLPAPKNLVVSRVTEDSARLSWTAPDAAFDSFAITYIEWWDVGEAIGLKVPGSERSYDLTGLKPGTEYRVHIQGVKGGNNSYPLDALFTT
B24: SEQ ID NO 290 (designed binder)
chain: MLPAPKNLVVSRVTEDSARLSWTAPDAAFDSFFYLEQAWGGEAIVLTVPGSERSYDLTGLKPGTEYWVEITGVKGGYASSPLSAIFTT
B25: SEQ ID NO 300 (designed binder)
chain: MLPAPKNLVVSRVTEDSARLSWTAPDAAFDSFFIGYLEPQPPGEAIVLTVPGSERSYDLTGLKPGTEYNVTIHGVKGGTPSMPLSAIFTT
B26: SEQ ID NO 308 (designed binder)
chain: MLPAPKNLVVSEVTEDSARLSWQGVARAFDSFLITYREQIFAGEVIVLTVPGSERSYDLTGLKPGTEYPVWIQGVKGGSPSAPLSAISTT
B27: SEQ ID NO 82 (designed binder)
chain: MLPAPKNLVVSRVTEDSARLSWTAPDAAFDSFAIAYVEWWKLGEAIVLTVPGSERSYDLTGLKPGTEYVVPIPGVKGGGHSSPLSAIFTT
B28: SEQ ID NO 61 (designed binder)
chain: MLPAPKNLVVSRVTEDSARLSWRVESRTFDSFLIQYQESEKVGEAIVLTVPGSERSYDLTGLKPGTEYTVSIYGVVWDTRDNPISNPLSAIFTT
B29: SEQ ID NO 301 (designed binder)
chain: MLPAPKNLVVSRVTEDSARLSWTAPDAAFDSFEIEYDEPYRGGEAIVLTVPGSERSYDLTSLKPGTEYPVSIGGVKGGITSDPLSAIFTT
B30: SEQ ID NO 307 (designed binder)
chain: MLPAPKNLVVSRVTEDSARLSWTAPDAAFDSFPITYSEPAHYGEAIVLTVPGSERSYDLTGLKPGTEYHVGIMGVKGGVFSSPLSAIFTT
B31: SEQ ID NO 292 (designed binder)
chain: MLPAPKNLVVSRVTEDSARLSWTAPDAAFDSFDIAYWELTPSGEAIELLVPGSERSYDLTGLKPGTEYRVDIIGVKGGFISEPLGATFTT
B32: SEQ ID NO 57 (designed binder)
chain: MLPAPKNLVVSRVTEDSARLSWTAPDAAFDSFSIKYLEWWQDGEAIVLTVPGSERSYDLTGLKPGTEYYVHIAGVKGGYRSYPLSAIFTT
B33: SEQ ID NO 309 (designed binder)
chain: MLPAPKNLVVSRVTEDSARLSWTAPDAAFDSFIIDYLELDQEGEAIVLTVPGSERSYDLTGLKPGTEYAVYIFGVKGGYPSTPLSAIFTT
B34: SEQ ID NO 280 (designed binder)
chain: MLPAPKNLVVRXVTEDSARLSWTAPDAAFDSFEIEYDEPYRGGEAIVLTVPGSERSYDLTSLKPGTEYPVSIGGVKGGITSDPLSAIFTT
modifications: X: residue not identified in the source; also: C-terminal poly-His tag, letters not given here

human serum albumin (human), sequence (P02768 25-609 limits assumed): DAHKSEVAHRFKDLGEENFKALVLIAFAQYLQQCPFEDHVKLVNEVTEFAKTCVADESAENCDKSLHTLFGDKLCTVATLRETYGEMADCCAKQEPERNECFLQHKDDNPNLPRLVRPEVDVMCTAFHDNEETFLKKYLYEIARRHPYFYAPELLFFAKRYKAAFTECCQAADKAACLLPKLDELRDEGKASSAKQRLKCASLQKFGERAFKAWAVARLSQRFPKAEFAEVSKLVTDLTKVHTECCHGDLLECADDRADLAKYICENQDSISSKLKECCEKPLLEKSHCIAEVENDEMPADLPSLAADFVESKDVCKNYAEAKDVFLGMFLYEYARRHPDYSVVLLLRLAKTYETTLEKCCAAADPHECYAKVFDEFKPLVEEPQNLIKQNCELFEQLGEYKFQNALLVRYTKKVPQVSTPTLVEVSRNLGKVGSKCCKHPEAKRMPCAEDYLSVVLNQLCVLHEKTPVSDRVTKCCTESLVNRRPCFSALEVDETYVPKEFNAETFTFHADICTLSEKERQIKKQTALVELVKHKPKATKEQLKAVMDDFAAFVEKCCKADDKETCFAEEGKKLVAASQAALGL
T1 sequence (P02786 other isoform, or with tags, fused parts or gaps): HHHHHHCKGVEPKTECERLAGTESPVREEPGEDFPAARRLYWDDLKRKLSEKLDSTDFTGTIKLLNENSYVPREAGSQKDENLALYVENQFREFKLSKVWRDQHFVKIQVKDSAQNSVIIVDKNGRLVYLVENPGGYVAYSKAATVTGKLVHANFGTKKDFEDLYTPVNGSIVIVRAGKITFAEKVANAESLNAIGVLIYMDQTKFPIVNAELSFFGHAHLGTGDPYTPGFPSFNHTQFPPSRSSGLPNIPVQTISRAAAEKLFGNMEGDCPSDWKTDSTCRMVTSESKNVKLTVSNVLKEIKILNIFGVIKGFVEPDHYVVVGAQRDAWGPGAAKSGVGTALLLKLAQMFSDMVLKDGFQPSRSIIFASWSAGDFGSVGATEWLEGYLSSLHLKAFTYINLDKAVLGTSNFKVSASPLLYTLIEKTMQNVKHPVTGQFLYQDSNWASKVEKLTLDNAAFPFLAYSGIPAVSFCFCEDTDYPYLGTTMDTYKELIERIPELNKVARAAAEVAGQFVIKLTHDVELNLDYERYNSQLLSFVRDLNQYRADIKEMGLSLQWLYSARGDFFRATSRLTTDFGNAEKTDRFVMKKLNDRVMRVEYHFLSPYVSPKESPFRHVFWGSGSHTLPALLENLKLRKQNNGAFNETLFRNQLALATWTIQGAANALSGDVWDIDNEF

The first assay concerns the target human serum albumin (human) (UniProt P02768). In words: screening ELISA. In general terms: In an ELISA, binding on a coated surface is turned into a signal by an enzyme label.
Molecule B1 gave an HSA of 52600.

B2 returned an HSA of 18600.

Turning to B3, the HSA is 3800.

Consider B4, for which the HSA worked out at 6250.

As to B5, the HSA amounted to 34000.

The molecule B6 registered an HSA of 10800.

Turning to B7, the HSA came to 21200.

B8 displayed an HSA of 8250.

In turn, B9 came in with an HSA of 28600.

The molecule B10 had an HSA of 7760.

As for B11, the HSA worked out at 2250.

For B12, the HSA was 7520.

With B13, the HSA amounted to 2200.

Take B14: the HSA stood at 6480.

B15 gave an HSA of 2200.

B16 showed an HSA of 40800.

Molecule B17 gave an HSA of 22400.

For B18, the HSA came to 2150.

B19 had an HSA of 25000.

For the molecule B20, the HSA is 2150.

On to B21, for which the HSA was 2650.

B22 yielded an HSA of 5500.

B23 gave an HSA of 25900.

Molecule B24 yielded an HSA of 11800.

The molecule B25 gave an HSA of 4050.

B26 yielded an HSA of 12300.

B27 gave an HSA of 18900.

B28 had an HSA of 10600.

Turning to B29, the HSA is 12000.

As for B30, the HSA stood at 4350.

B31 returned an HSA of 8850.

As to B32, the HSA amounted to 16900.

B33: the HSA turned out to be 2850.

A further assay concerns the target T1, recombinant biotinylated CD71 extracellular domain (Sino Biologics) with an N-terminal 6His tag (human), P02786. In words: screening ELISA.
Take B34: the hCD71 was determined as 446000.

The target of a further assay is T1, recombinant biotinylated CD71 …. In words: screening ELISA, ratio.
For B34, the hCD71:HSA stood at 21.
